For 2 molecules, Kd, koff and kon results are on record in article PMC9163516.

The assay has as its target T1, biotinylated avi-tagged TβRI, P36897.
T1 chain: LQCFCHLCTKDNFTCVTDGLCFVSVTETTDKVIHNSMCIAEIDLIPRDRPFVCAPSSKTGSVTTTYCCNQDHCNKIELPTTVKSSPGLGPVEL
The experiment in a line: SPR; BIAcore X100; biotinylated avi-tagged TβRI or TβRII captured on neutravidin-coated CM-5 chip (results say streptavidin) at 50-150 RU; TGM constructs injected as 2-fold dilution series in 25 mM Hepes, pH 7.4, 150 mM NaCl, 0.005% P20, 100 μl/min; 1:1 kinetic fit of a single injection series.

B1: TGM-D2 (domain or fragment)
chain: RCSPLPTNDTVSFEYLKATVNPGIIFNITVHPDASGKYPELTYIKRICKNFPTDSNVQGHIIGMCYNAEWQFSSTPTCPAS
modifications: not checked
For B1, the Kd was found to be 310 nM, the koff turned out to be 0.091 s⁻¹ and the kon is 300000 M⁻¹ s⁻¹.

B2: TGM-D12 (domain or fragment)
chain: DDSGCMPFSDEAATYKYVAKGPKNIEIPAQIDNSGMYPDYTHVKRFCKGLHGEDTTGWFVGICLASQWYYYEGVQECDDRRCSPLPTNDTVSFEYLKATVNPGIIFNITVHPDASGKYPELTYIKRICKNFPTDSNVQGHIIGMCYNAEWQFSSTPTCPAS
modifications: not checked
As for B2, the dissociation constant (Kd) was 24 nM, the koff amounted to 0.0016 s⁻¹ and the kon was 67000 M⁻¹ s⁻¹.

Broadly, the Kd is a measure of binding affinity in units of concentration. Broadly, the koff is the rate constant with which the complex falls apart. As usually defined, the kon is a measure of how fast the partners come together. Read a low kon as slower complex formation.
